Test results published in PMC6103731 (RNA Biology, 2017).
Numbering of substitutions follows the chain as printed. In names and notes the source's numbering stands.

T1: EC1-2 domain of VE-cadherin
T1 sequence (P33151 whole entry, species assumed, looked up): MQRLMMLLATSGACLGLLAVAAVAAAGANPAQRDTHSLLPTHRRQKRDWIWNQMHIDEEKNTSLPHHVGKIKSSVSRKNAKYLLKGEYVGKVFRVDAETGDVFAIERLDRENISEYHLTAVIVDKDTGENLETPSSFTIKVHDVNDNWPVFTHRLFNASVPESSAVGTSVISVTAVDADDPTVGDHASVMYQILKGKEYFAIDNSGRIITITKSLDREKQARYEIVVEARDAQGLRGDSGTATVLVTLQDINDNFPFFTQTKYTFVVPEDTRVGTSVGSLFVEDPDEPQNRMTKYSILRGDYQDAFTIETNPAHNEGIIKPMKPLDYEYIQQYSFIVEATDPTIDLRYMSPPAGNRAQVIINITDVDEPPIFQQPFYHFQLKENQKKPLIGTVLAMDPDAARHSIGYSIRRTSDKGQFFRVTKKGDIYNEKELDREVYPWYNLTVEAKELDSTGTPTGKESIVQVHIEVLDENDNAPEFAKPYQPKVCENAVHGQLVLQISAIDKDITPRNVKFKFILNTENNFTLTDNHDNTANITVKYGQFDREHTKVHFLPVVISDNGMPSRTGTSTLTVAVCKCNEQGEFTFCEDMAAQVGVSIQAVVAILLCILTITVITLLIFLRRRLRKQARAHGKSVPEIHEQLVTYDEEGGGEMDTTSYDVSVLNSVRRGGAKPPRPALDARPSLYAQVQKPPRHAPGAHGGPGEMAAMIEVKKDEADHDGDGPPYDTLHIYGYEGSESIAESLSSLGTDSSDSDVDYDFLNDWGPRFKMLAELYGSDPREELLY

B1: human H130R T2-TrpRS (domain or fragment, UniProt P23381 97-471, looked up)
chain: GIDYDKLIVRFGSSKIDKELINRIERATGQRPHRFLRRGIFFSHRDMNQVLDAYENKKPFYLYTGRGPSSEAMHVGHLIPFIFTKWLQDVFNVPLVIQMTDDEKYLWKDLTLDQAYSYAVENAKDIIACGFDINKTFIFSDLDYMGMSSGFYKNVVKIQKHVTFNQVKGIFGFTDSDCIGKISFPAIQAAPSFSNSFPQIFRDRTDIQCLIPCAIDQDPYFRMTRDVAPRIGYPKPALLHSTFFPALQGAQTKMSASDPNSSIFLTDTAKQIKTKVNKHAFSGGRDTIEEHRQFGGNCDVDVSFMYLTFFLEDDDKLEQIRKDYTSGAMLTGELKKALIEVLQPLIAEHQARRKEVTDEIVKEFMTPRKLSFDFQ
B2: wild-type human T2-TrpRS (domain or fragment)
chain: B1 chain with R34H

Assays:
[1] = biological target: the molecule itself; assay: crystal structure
[2] = biological target: T1, EC1-2 domain of VE-cadherin; assay: SPR

| Binder | stoichiometry N [1] | fold stronger binding affinity than WT T2-TrpRS [2] | kon [2] |
| --- | --- | --- | --- |
| B1 | 2 | > 50 fold | 2.71e+07 M⁻¹ s⁻¹ |
| B2 |  |  | 176000 M⁻¹ s⁻¹ |
